Data taken from patent publication US20040014072, “Novel dna synthase” (published 2004).

T1: p41-p46 complex (DNA primase/polymerase) (Pyrococcus furiosus, UniProt Q9P9H1;Q8U4H7 SEQ:1-347,SEQ:1-396)
T1 sequence 1: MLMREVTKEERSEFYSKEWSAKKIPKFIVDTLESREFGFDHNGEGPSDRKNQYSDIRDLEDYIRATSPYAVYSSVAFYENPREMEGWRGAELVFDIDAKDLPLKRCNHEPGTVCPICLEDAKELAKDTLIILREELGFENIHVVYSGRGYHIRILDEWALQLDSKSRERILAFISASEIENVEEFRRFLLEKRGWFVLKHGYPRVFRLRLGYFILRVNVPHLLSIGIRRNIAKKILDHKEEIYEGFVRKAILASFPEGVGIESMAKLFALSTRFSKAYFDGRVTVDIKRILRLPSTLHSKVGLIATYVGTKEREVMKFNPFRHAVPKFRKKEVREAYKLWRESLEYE
T1 sequence 2: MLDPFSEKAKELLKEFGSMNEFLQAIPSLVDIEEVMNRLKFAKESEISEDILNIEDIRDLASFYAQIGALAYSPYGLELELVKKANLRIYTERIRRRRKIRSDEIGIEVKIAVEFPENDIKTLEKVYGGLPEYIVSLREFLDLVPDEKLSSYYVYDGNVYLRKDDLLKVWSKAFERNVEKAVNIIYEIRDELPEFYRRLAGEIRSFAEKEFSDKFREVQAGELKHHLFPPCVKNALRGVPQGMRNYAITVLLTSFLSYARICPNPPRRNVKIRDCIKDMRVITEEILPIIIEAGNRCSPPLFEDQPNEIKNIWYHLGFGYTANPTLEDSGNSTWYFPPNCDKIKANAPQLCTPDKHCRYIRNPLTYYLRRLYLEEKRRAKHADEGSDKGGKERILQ

T2: p41 (Pyrococcus furiosus, UniProt Q9P9H1 SEQ:1-347)
T2 sequence: T1 sequence 1

T3: p46 (Pyrococcus furiosus, UniProt Q8U4H7 SEQ:1-396)
T3 sequence: T1 sequence 2

B1: 49-mer oligodeoxynucleotide (ssDNA)
DNA: AGCTACCATGCCTGCACGAATTAAGCAATTCGTAATCATGGTCATAGCT
B2: 49-mer annealed to complementary 49-mer (dsDNA)
DNA 1: B1 DNA
DNA 2: AGCTATGACCATGATTACGAATTGCTTAATTCGTGCAGGCATGGTAGCT

How the values were obtained:
[1] = biological target: T1, p41-p46 complex (DNA primase/polymerase); experiment: EMSA; 50 mM Tris-Cl pH 8.0, 10 mM MgCl2, 20 mM KCl, 55 C; details: tags: N-terminal His6 on p41, p46 untagged, label: 5'-32P
Procedure: (§1) The gel-shift assey was used to detect binding activity that binds enzyme to DNA. 49 chain-length oligodeoxynuclotide, 5′-d[…] GCT-3′ was labeled with ³²P at 5′ terminal. Then the chain was used for gel-shift assey with itself or annealed with 49 or 17 chain length complementary oligodeoxynuclotide. With these three kinds of DNA, and the proteins were mixed in variety of concentrations in gel-shift assey buffer (50 mM Tris.Cl, pH8.0, 10 mM MgCl₂, 20 mM KCl, and 1 mM β-mercaptoethanol). The mixtures were left for 5 minutes under temperature of 55° C. and separated by electrophoreting with 1% agarose gel. The gel was processed by 0.1×TAE buffer (4 mM Tris-Acetate, pH8.0, 0.1 mM EDTA) and electrophoreted with same buffer. Autoradiography after the electrophoration was shown in FIG. 5. p41-p46 complex bound to all types of DNA and shifted the band as the complex.

[2] = biological target: T2, p41; experiment: EMSA; no band shift for p41 alone, data not shown; details: tags: N-terminal His6, label: 5'-32P
Procedure: as §1

[3] = biological target: T3, p46; experiment: EMSA; no band shift for p46 alone, data not shown; details: label: 5'-32P
Procedure: as §1

Row | Binder | binding result [1] | binding result [2] | binding result [3] | binding result ([1]; full duplex) | binding result ([2]; full duplex) | binding result ([3]; full duplex)
1 | B1 | binds | no binding | no binding | – | – | –
2 | B2 | – | – | – | binds | no binding | no binding
